Data published in publication doi:10.1101/2023.09.04.556233.
Like-named read-outs stand apart in the source and are kept apart here.

Experiments:
Experiment in all cases: EMSA
Spalt major (Salm) [1] = target: T1, Spalt major (Salm) (UniProt P39770 1-1365)
T1 sequence: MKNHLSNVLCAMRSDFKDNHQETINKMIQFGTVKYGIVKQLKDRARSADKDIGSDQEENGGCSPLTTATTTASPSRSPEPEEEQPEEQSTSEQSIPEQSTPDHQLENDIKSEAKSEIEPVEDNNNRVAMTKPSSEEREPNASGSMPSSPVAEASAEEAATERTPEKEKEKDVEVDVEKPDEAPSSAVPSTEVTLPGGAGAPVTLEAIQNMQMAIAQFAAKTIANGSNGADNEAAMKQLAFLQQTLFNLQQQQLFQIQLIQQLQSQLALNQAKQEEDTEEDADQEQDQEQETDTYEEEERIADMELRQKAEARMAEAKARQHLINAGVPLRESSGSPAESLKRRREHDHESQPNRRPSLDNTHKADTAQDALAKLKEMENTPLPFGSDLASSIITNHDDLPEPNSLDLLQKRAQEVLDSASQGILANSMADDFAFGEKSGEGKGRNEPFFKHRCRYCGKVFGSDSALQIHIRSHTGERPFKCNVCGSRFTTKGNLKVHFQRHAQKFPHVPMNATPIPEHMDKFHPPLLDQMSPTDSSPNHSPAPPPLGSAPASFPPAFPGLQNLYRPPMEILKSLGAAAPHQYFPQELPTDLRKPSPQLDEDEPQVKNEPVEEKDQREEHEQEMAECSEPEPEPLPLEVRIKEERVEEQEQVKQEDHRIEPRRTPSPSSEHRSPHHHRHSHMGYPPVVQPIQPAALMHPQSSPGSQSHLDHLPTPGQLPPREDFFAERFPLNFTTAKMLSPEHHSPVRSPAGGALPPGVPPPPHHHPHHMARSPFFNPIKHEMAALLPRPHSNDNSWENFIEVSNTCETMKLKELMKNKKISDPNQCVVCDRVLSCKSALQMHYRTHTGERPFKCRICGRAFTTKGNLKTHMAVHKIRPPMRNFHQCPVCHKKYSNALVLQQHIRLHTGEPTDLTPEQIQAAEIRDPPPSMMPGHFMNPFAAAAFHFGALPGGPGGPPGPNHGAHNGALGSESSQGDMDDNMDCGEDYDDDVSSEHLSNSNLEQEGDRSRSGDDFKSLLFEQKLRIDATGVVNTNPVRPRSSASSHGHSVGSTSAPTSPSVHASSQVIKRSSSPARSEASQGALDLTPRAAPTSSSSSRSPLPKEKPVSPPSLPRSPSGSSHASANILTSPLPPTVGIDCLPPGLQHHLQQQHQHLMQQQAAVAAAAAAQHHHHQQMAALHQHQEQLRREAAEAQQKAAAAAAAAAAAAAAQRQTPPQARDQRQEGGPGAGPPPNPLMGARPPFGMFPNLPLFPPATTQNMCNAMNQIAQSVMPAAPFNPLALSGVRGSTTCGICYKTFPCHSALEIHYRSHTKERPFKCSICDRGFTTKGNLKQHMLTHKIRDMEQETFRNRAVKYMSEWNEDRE

Spalt major (Salm) [2] = target: T1, Spalt major (Salm); remark: listed apart in the source
Spalt major (Salm) [3] = target: T1, Spalt major (Salm); remark: listed apart in the source

B1: 60salC (5' half, conserved) (dsDNA)
DNA 1: GCAAAAAGATATCAAAAATGTCGCATATT
DNA 2: AATATGCGACATTTTTGATATCTTTTTGC
Q: Does B1 bind (Spalt major (Salm) [1])?
A: binds

B2: 60sal (dsDNA)
DNA 1: GCAAAAAGATATCAAAAATGTCGCATATTAATAACGCTCTCCATTGGCGGACACAGGAC
DNA 2: GTCCTGTGTCCGCCAATGGAGAGCGTTATTAATATGCGACATTTTTGATATCTTTTTGC
Q: Does B2 bind (Spalt major (Salm) [2])?
A: binds

B3: 60salNC (3' half, non-conserved) (dsDNA)
DNA 1: TTAATAACGCTCTCCATTGGCGGACACAGGAC
DNA 2: GTCCTGTGTCCGCCAATGGAGAGCGTTATTAA
Q: Does B3 bind (Spalt major (Salm) [3])?
A: binds
